Test results: patent publication US20140057807A1 (UNIVERSITY OF CHICAGO, published 2014)
Residue numbers refer to the chain shown, from its start.

T1: human Abl SH2 domain (human, UniProt P00519 112-232, limits assumed)
T1 construct: domain: SH2 domain; poly-histidine tagged in selection; tag cleaved for SPR and crystals; also called Ab1SH2; SH2 domain of Abl kinase
T1 sequence (looked up): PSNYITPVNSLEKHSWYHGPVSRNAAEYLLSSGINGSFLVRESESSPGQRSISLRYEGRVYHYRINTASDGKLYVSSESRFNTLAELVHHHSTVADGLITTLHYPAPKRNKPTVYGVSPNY

B1: SEQ ID NO 36 (designed binder)
chain: VSSVPTKLEVVAATPTSLLISWDAPAVTVVYYFITYGETGGNSPVQEFTVPGSKSTATISGLSPGVDYTITVYAWSYELTGDYLQQFSPISINYRT
B2: SEQ ID NO 22 (designed binder)
chain: VSSVPTKLEVVAATPTSLLISWDAPAVTVDHYFITYGETGGSWSYYQEFAVPGSKSTATISGLSPGVDYTITVYAYSYEPYYYYNPISINYRT
B3: SEQ ID NO 39 (designed binder)
chain: VSSVPTKLEVVAATPTSLLISWDAPAVTVDFYVITYGETGSYGSYPQAFEVPGSKSTATISGLSPGVDYTITVYTESEGYISSSPISINYRT
B4: SEQ ID NO 15 (designed binder)
chain: VSSVPTKLEVVAATPTSLLISWDAPAVTVDHYVITYGETGAHYYYFQEFEVPGSKSTATISGLSPGVDYTITVYAVSHGTDGNKLYFFSPISINYRT
B5: SEQ ID NO 31 (designed binder)
chain: VSSVPTKLEVVAATPTSLLISWDAPAVTVVFYVITYGETGSYSGWQEFEVPGSKSTATISGLSPGVDYTITVYAYYYQNPESYYSPISINYRT
B6: SEQ ID NO 19 (designed binder)
chain: VSSVPTKLEVVAATPTSLLISWDAPAVTVDFYIITYGETGGGYYSYQTFTVPGSKSTATISGLSPGVDYTITVYANEFGKSYPYTMNPISINYRT
B7: SEQ ID NO 24 (designed binder)
chain: VSSVPTKLEVVAATPTSLLISWDAPAVTVDLYIITYGETGSYHGWQTFTVPGSKSTATISGLSPGVDYTITVYADSSTWPYWYYSSPISINYRT
B8: ySMB-20 (designed binder)
chain: VSSVPTKLEVVAATPTSLLISWDAGYYMNYYMVDYYRITYGETGGNSPVQEFTVPGSSSTATISGLSPGVDYTITVYAYWYDEYGQYWWSESPISINYRT
notes: variable loops only; library YSGW
B9: SEQ ID NO 42 (designed binder)
chain: VSSVPTKLEVVAATPTSLLISWDAPAVTVDYYVITYGETGGNSPVQEFEVPGSKSTATISGLSPGVDYTITVYATYGDAYWHYYYSPISINYRT
B10: SEQ ID NO 17 (designed binder)
chain: VSSVPTKLEVVAATPTSLLISWDAPAVTVDYYVITYGETGWYSPPQEFTVPGSKSTATISGLSPGVDYTITVYAWNWSAGLQSPISINYRT
B11: SEQ ID NO 21 (designed binder)
chain: VSSVPTKLEVVAATPTSLLISWDAPAVTVDLYHITYGETGGVWSGYQEFTVPGSKSTATISGLSPGVDYTITVYAVQHQEIWPYYYSPISINYRT
B12: ySMB-69 (designed binder)
chain: VSSVPTKLEVVAATPTSLLISWDASSSSVSYYRITYGETGGNSPVQEFTVPGSSSTATISGLSPGVDYTITVYAYYSTYWYDWSGSPISINYRT
notes: as for B8
B13: ySMB-74 (designed binder)
chain: B12 chain with S77Y, T78F, W80D, D82W, W83M, S84A, G85Y
notes: as for B8
B14: ySMB-71 (designed binder)
chain: B12 chain with S77V, T78G, Y79D, W80G, D82Y, G85E
notes: as for B8
B15: SEQ ID NO 20 (designed binder)
chain: VSSVPTKLEVVAATPTSLLISWDAPAVTVLYYVITYGETGGNSPVQEFTVPGSKSTATISGLSPGVDYTITVYATDYGPGYPYESPISINYRT
B16: SEQ ID NO 13 (designed binder)
chain: VSSVPTKLEVVAATPTSLLISWDAPAVTVDYYVITYGETGGGYYSFQAFEVPGSKSTATISGLSPGVDYTITVYAFWPDDYYYGGSEYSPISINYRT
B17: SEQ ID NO 14 (designed binder)
chain: VSSVPTKLEVVAATPTSLLISWDAPAVTVDHYHITYGETGGSWSGYQEFTVPGSKSTATISGLSPGVDYTITVYANSSWYWYNPISINYRT
B18: SEQ ID NO 26 (designed binder)
chain: VSSVPTKLEVVAATPTSLLISWDAPAVTVDHYVITYGETGGVWYGYQEFTVPGSKSTATISGLSPGVDYTITVYAMTSYFQEYWSPISINYRT
B19: SEQ ID NO 32 (designed binder)
chain: VSSVPTKLEVVAATPTSLLISWDAPAVTVDLYFITYGETGGNSPVQEFTVPGSKSTATISGLSPGVDYTITVYAWYYGYYGPQYTSPISINYRT
B20: SEQ ID NO 37 (designed binder)
chain: VSSVPTKLEVVAATPTSLLISWDAPAVTVVYYNITYGETGGNSPVQEFTVPGSKSTATISGLSPGVDYTITVYAWYEYGGYMEIDSPISINYRT
B21: SEQ ID NO 41 (designed binder)
chain: B20 chain with V30D, N33Y, E77W, Y78N, G79D, G80Y, E83S, I84S, D85M
B22: SEQ ID NO 23 (designed binder)
chain: VSSVPTKLEVVAATPTSLLISWDAPAVTVDFYVITYGETGSFSPPQEFTVPGSKSTATISGLSPGVDYTITVYAMMWGWEYYDYNISPISINYRT
B23: SEQ ID NO 25 (designed binder)
chain: B22 chain
B24: SEQ ID NO 27 (designed binder)
chain: B22 chain
B25: SEQ ID NO 12 (designed binder)
chain: VSSVPTKLEVVAATPTSLLISWDAPAVTVDHYNITYGETGAFWHYVQAFTVPGSKSTATISGLSPGVDYTITVYAEWDQYVVGSPISINYRT
B26: SEQ ID NO 18 (designed binder)
chain: VSSVPTKLEVVAATPTSLLISWDAPAVTVDYYVITYGETGGNSPVQEFTVPGSKSTATISGLSPGVDYTITVYAWSWKYWYHGSPISINYRT
B27: SEQ ID NO 38 (designed binder)
chain: VSSVPTKLEVVAATPTSLLISWDAPAVTVDYYVITYGETGVPYYGWQEFEVPGSKSTATISGLSPGVDYTITVYAYPGSNWFYDWWSPISINYRT
B28: SEQ ID NO 35 (designed binder)
chain: VSSVPTKLEVVAATPTSLLISWDAPAVTVDYYVITYGETGAFGSGQEFEVPGSKSTATISGLSPGVDYTITVYAKWMYSYMYNPISINYRT
B29: ySMB-17 (designed binder)
chain: VSSVPTKLEVVAATPTSLLISWDASSSSVSYYRITYGETGGNSPVQEFTVPGSSSTATISGLSPGVDYTITVYAYIQYYDLYYASPISINYRT
notes: as for B8

Columns and labels:
[1] = target: T1, human Abl SH2 domain; assay: phage display selection hit, BL1 library
[2] = target: human ubiquitin (human, UniProt P0CG48 1-76); assay: phage display selection hit, BL1 library
[3] = target: T2, yeast small ubiquitin-like modifier protein (yeast, UniProt Q12306 3-98 = SUMO); assay: SPR; column 'Estimated Kd (nM)'
T2 construct: GST fusion in most phage ELISAs, His-tagged or tag-cleaved elsewhere; also called ySUMO; yeast SUMO
How it was run: (§1)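 Purified His-tagged molecules were captured on an NTA surface of a Biacore 2000 to reach a theoretical maximum target response of 100-200 RU, and target at varying concentrations was flowed at 30 μL/min. Estimated Kd values come from surface plasmon resonance binding signals, analysed either by kinetic fitting in BIAevaluation software or by fitting equilibrium responses to a saturation binding curve with 1:1 binding.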

[4] = target: T2, yeast small ubiquitin-like modifier …; assay: SPR; column 'Estimated Kd (nM)' [Continued]
How it was run: as §1

T2 sequence (Q12306 3-98 limits assumed): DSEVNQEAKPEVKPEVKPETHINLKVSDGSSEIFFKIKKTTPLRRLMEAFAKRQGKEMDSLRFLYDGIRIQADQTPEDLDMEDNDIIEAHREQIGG

Binder	binding result [1]	binding result [2]	further results
B1	binds	–	–
B2	–	binds	–
B3	binds	–	–
B4	–	binds	–
B5	binds	–	–
B6	–	binds	–
B7	–	binds	–
B8	–	–	Kd [3]: 66 nM
B9	binds	–	–
B10	–	binds	–
B11	–	binds	–
B12	–	–	Kd [4]: 138 nM
B13	–	–	Kd [4]: 544 nM
B14	–	–	Kd [4]: 230 nM
B15	–	binds	–
B16	–	binds	–
B17	–	binds	–
B18	–	binds	–
B19	binds	–	–
B20	binds	–	–
B21	binds	–	–
B22	–	binds	–
B23	–	binds	–
B24	–	binds	–
B25	–	binds	–
B26	–	binds	–
B27	binds	–	–
B28	binds	–	–
B29	–	–	Kd [3]: 40 nM
